# According to patent US9096835B2, “DNA polymerase” (Medical Research Council, priority 2003, dated 2015):
# Where “and” joins values, the source holds several entries; their conditions need not be identical. Equal values may be shown once. Entries after “also recorded” stand apart in the source; their conditions may differ.
# B1: M1: Taq mutant G84A, D144G, K314R, E520G, F598L, A608V, E742G; SEQ ID NO: 1 (protein)
# chain: MRGMLPLFEPKGRVLLVDGHHLAYRTFHALKGLTTSRGEPVQAVYGFAKSLLKALKEDGDAVIVVFDAKAPSFRHEAYGGYKAARAPTPEDFPRQLALIKELVDLLGLARLEVPGYEADDVLASLAKKAEKEGYEVRILTADKGLYQLLSDRIHVLHPEGYLITPAWLWEKYGLRPDQWADYRALTGDESDNLPGVKGIGEKTARKLLEEWGSLEALLKNLDRLKPAIREKILAHMDDLKLSWDLAKVRTDLPLEVDFAKRREPDRERLRAFLERLEFGSLLHEFGLLESPKALEEAPWPPPEGAFVGFVLSRREPMWADLLALAAAAGGRVHRAPEPYKALRDLKEARGLLAKDLSVLALREGLGLPPGDDPMLLAYLLDPSNTTPEGVARRYGGEWTEEAGERAALSERLFANLWGRLEGEERLLWLYREVERPLSAVLAHMEATGVRLDVAYLRALSLEVAEEIARLEAEVFRLAGHPFNLNSRDQLERVLFDELGLPAIGKTEKTGKRSTSAAVLGALREAHPIVEKILQYRELTKLKSTYIDPLPDLIHPRTGRLHTRFNQTATATGRLSSSDPNLQNIPVRTPLGQRIRRAFIAEEGWLLVVLDYSQIELRVLAHLSGDENLIRVFQEGRDIHTETASWMFGVPREAVDPLMRRAAKTINFGVLYGMSAHRLSQELAIPYEEAQAFIERYFQSFPKVRAWIEKTLEEGRRRGYVETLFGRRRYVPDLEARVKSVRGAAERMAFNMPVQGTAADLMKLAMVKLFPRLEEMGARMLLQVHDELVLEAPKERAEAVARLAKEVMEGVYPLAVPLEVEVGIGEDWLSAKE
# modifications: Mutant Thermus aquaticus DNA polymerase
# Tests used:
# [1] = system: template containing a cis-syn cyclobutane thymine-thymine dimer (CPD); assay: Translesion replication assay (primer extension), CPD; type: biochemical; conditions: gel-extension assay, 60° C.
# Protocol: (§1) Template primers 22 (undamaged) or 23 (containing a synthetic abasic site) were synthesized by Lofstrand Laboratories (Gaithersburg, Md.). Template primer 24 (containing a single cis-syn thymine dimer), was synthesized as described (34). Primer 25 was ^32P-labeled and annealed to one of the three templates 22, 23, 24 (at a primer template ratio of molar 1:1.5) and extended in 40 mM Tris.HCl at pH 8.0, 5 mM MgCl2, 100 μM of each dNTP, 10 mM DTT, 250 μg/ml BSA, 2.5% glycerol, 10 nM primer-template DNA and 0.1 Unit of polymerase at 60° C. for various times.
# (§2) Primer extension assays were essentially as described in (Ghadessy et al., 2004). Briefly, undamaged oligonucleotides and a 51mer containing a synthetic abasic site were synthesized by Lofstrand Laboratories (Gaithersburg, Md.) using standard techniques and were gel purified prior to use. A 20mer primer (LES—20 P) with the sequence 5′-[…]-3′ (SEQ ID NO: 99) was 5′-labeled with [^32P]ATP (5000 Ci/mmole; 1 Ci=37 GBq) (Pharmacia) using T4 polynucleotide kinase (Invitrogen, Carlsbad Calif.). Radiolabeled primer-template DNAs were prepared by annealing the 5′[^32P] labeled 20mer primer to one of the two following 51mer templates (at a primer template ratio of molar 1:1.5). 1) undamaged DNA (UNDT51T); 5′-AGCTACCATGCCTGCACGAATTCGGCATCCGTCGCGACCACGGTCGCAGCG-3′ (SEQ ID NO: 100); 2) an oligo (LABA51T) containing a synthetic abasic site (indicated as an X in bold font); 5′-AGCTACCATGCCTGCACGACA XCG GCATCCGTCGCGACCACGGTCGCAGCG-3′ (SEQ ID NO: 101). Standard replication reactions of 10 contained 40 mM Tris.HCl at pH 8.0, 5 mM MgCl2, 100 μM of each ultrapure dNTP (Amersham Pharmacia Biotech, NJ), 10 mM DTT, 250 μg/ml BSA, 2.5% glycerol, 10 nM 5′[32P] primer-template DNA and 0.1 Unit of polymerase. After incubation at 60° C. for various times reactions were terminated by the addition of 10 μl of 95% formamide/10 mM EDTA and the samples heated to 100° C. for 5 min. Reaction mixtures (5 μl) were subjected to 20% polyacrylamide/7 M Urea gel electrophoresis and replication products visualized by PhosphorImager analysis.
# [2] = target: matched and mismatched primer-template duplex; assay: Template affinity equilibrium binding assay; conditions: not shown
# Protocol: An equilibrium binding assay (12) was used to determine relative affinity of polymerases for the mismatched primer-templates used in the kinetics assays. Polymerases were preincubated at 60° C. in 1× Taq buffer with 50 nM ^32P-labeled matched primer-template and 50 nM unlabeled mismatched competitor primer-templates. Reactions were initiated by simultaneous addition of dCTP (200 μM) and trap DNA (XbaI/SalI-restricted sheared salmon sperm DNA, 4.5 mg/ml).
# undamaged template = assay: Translesion replication assay, control; type: biochemical; conditions: gel-extension assay, 60° C.
# Protocol: as §1
# [3] = system: primer-template duplex, correct or incorrect incoming dNTP; assay: Steady-state single nucleotide incorporation kinetics, gel-based assay; type: biochemical
# Protocol: Kinetic parameters were determined using a gel-based assay essentially as described (16). Primers 15, 16, 17 (3′ base=G, C, A respectively) were ^32P-labeled and annealed to one of template strands 18, 19, 20 (template base=C, G, A respectively) or 21 (template base C different context). Duplex substrates were used at 50 nM final concentration in 1× Taq buffer with various concentrations of enzyme and dNTP. Reactions were carried out at 60° C. for times whereby <20% of primer-template was utilized at the highest concentration of dNTP.
# Extension and incorporation kinetics of M1 and M4 for a selection of mismatches were measured using a gel-based steady-state kinetic assay (Goodman) (Tables 1 & 2). M1 and M4 respectively extend a C•C mispair 390 and 75-fold more efficiently than wtTaq. […] The gain in extension efficiency derives predominantly from increased relative Vmax values for the mutant polymerases, while Km for nucleotide substrates remains largely unchanged. For most DNA polymerases the relative efficiency of extending a given mispair (f0ext) is similar to the relative efficiency of forming it (finc) (Goodman 1993, Goodman 1990, Washington 2001). Indeed, M1 and M4 respectively incorporate dCTP opposite template base C 206- and 29-fold more efficiently than wtTaq (Table 2).
# [4] = system: template containing an abasic site; assay: Translesion replication assay (primer extension), abasic site; type: biochemical; conditions: gel-extension assay, 60° C.
# Protocol: as §1, §2
molecule,measurement,setting,value
B1,CPD bypass in primer extension,[1],able to readily extend all of the primer to the 3′T of the dimer
same,dissociation constants for matched and mismatched primer-template duplex,[2],indistinguishable
same,primer extension on undamaged template,undamaged template,efficiently and rapidly extended primers to the end of the template
same,Km,[3]; base pair C: dCTP,264 µM
same,"Ratio of finc, finc (mutant polymerase)/finc (wtTaq)",[3]; base pair C: dCTP,206 and 206.74
same,"finc, f (incorrect dNTP)/f (correct dNTP)",[3]; base pair C: dCTP,7.97 × 10^−6
same,Vmax,[3]; base pair C: dCTP (template base: incoming nucleotide),6.08 % Min^−1
same,Vmax,"[3]; base pair C: dGTP (template base: incoming nucleotide), correct dNTP",111.66 % Min^−1
same,Km,"[3]; base pair C: dGTP, correct dNTP",0.0387 µM
same,Km,[3]; base pair G: dATP,257 µM
same,"Ratio of finc, finc (mutant polymerase)/finc (wtTaq)",[3]; base pair G: dATP,2.08
same,"finc, f (incorrect dNTP)/f (correct dNTP)",[3]; base pair G: dATP,1.72 × 10^−4
same,Vmax,[3]; base pair G: dATP (template base: incoming nucleotide),681.82 % Min^−1
same,Vmax,"[3]; base pair G: dCTP (template base: incoming nucleotide), correct dNTP",308 % Min^−1
same,Km,"[3]; base pair G: dCTP, correct dNTP",0.02 µM
same,Km,[3]; base pair G: dGTP,377 µM
same,"Ratio of finc, finc (mutant polymerase)/finc (wtTaq)",[3]; base pair G: dGTP,21.88
same,"finc, f (incorrect dNTP)/f (correct dNTP)",[3]; base pair G: dGTP,3.72 × 10^−5
same,Vmax,[3]; base pair G: dGTP (template base: incoming nucleotide),215.98 % Min^−1
same,Km,[3]; base pair G: dTTP,1.65 µM
same,"Ratio of finc, finc (mutant polymerase)/finc (wtTaq)",[3]; base pair G: dTTP,2.43
same,"finc, f (incorrect dNTP)/f (correct dNTP)",[3]; base pair G: dTTP,4.01 × 10^−4
same,Vmax,[3]; base pair G: dTTP (template base: incoming nucleotide),10.19 % Min^−1
same,abasic site bypass in primer extension,[4],able to extend past the lesion and to the end of the template; also recorded: capable of both insertion opposite the abasic site and lesion bypass
